Measured values from publication PMC8556674.

Columns and labels:
[1] = target: mchr-Miro2 (human) (UniProt Q8IXI1)
[2] = target: mchr-Miro2 A13V (human) (UniProt Q8IXI1)
[3] = target: mchr-Miro2 (human) (UniProt Q8IXI1); remark: listed apart in the source

Sequence of mchr-Miro2 (human) (Q8IXI1 whole entry): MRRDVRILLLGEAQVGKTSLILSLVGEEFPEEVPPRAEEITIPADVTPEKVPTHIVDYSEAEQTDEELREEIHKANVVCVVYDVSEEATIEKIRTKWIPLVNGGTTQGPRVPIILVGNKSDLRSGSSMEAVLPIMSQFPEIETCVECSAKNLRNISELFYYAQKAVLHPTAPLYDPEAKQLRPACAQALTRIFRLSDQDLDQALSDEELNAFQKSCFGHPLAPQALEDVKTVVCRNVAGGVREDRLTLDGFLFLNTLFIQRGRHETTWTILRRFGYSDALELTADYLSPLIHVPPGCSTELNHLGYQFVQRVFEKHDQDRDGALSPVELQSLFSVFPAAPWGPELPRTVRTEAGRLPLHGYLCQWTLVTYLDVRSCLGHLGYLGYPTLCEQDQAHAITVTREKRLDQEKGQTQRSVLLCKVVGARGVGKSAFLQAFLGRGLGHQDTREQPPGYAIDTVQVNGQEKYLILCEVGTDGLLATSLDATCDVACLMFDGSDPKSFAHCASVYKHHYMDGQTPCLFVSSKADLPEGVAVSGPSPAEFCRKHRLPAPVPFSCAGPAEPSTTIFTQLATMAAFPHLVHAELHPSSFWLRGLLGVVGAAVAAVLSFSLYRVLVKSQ
Sequence of mchr-Miro2 A13V (human) (Q8IXI1 whole entry A13V): as the sequence (Q8IXI1 whole entry) above, with A13V counted along it

| Substance | PARF immobile fraction, HeLa cells, 25 uM digitonin [1] | FRAP immobile fraction, live HeLa cells [2] | FRAP immobile fraction, live HeLa cells [3] | FRAP t1/2 of mitochondrial GFP fluorescence, live HeLa cells [3] [s] |
| --- | --- | --- | --- | --- |
| MYO19^898–970-GFP (from UniProt Q96H55 898-970) (domain or fragment) | 0.33 | 0.14 | 0.03 | 9.2 |
| MYO19^898–970-GFP mut. (K923, R927 and K928 mutated to alanine) (from UniProt Q96H55 898-970) (domain or fragment) |  |  | 0.04 | 1.5 |
